Source: paper PMC2605266

What was measured:
[1] = molecular target: T1, GST fused to the cytosolic domain of VAMP8 (human); assay: pull-down; 5 ug GST fusion protein immobilised on glutathione Sepharose, 5 ug His-tagged Munc18c in 500 ul, overnight at 4 C; binding buffer 150 mM potassium acetate, 1 mM MgCl2, 0.05% Tween 20, 20 mM HEPES pH 7.4; bound Munc18c detected by immunoblot
T1 sequence (Q9BV40 whole entry, looked up): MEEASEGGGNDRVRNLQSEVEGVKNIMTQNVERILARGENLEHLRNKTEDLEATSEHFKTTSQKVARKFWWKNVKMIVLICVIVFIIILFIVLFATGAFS

[2] = molecular target: T2, GST fused to the cytosolic domain of VAMP4 (human); assay: as above
T2 sequence (O75379 whole entry, looked up): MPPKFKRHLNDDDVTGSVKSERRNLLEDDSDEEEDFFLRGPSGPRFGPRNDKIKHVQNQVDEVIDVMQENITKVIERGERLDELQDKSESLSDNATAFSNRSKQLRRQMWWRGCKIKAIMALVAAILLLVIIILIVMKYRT

B1: Munc18c, N-terminal His6-fusion protein (natural protein)
chain: MAPPVSERGLKSVVWRKIKTAVFDDCRKEGEWKIMLLDEFTTKLLSSCCKMTDLLEEGITVIENIYKNREPVRQMKALYFISPTPKSVDCFLRDFGSKSEKKYKAAYIYFTDFCPDSLFNKIKASCSKSIRRCKEINISFIPQESQVYTLDVPDAFYYCYSPDPSNASRKEVVMEAMAEQIVTVCATLDENPGVRYKSKPLDNASKLAQLVEKKLEDYYKIDEKGLIKGKTQSQLLIIDRGFDPVSTVLHELTFQAMAYDLLPIENDTYKYKTDGKEKEAVLEEDDDLWVRVRHRHIAVVLEEIPKLMKEISSTKKATEGKTSLSALTQLMKKMPHFRKQISKQVVHLNLAEDCMNKFKLNIEKLCKTEQDLALGTDAEGQRVKDSMLVLLPVLLNKNHDNCDKIRAVLLYIFGINGTTEENLDRLIHNVKIEDDSDMIRNWSHLGVPIVPPSQQAKPLRKDRSAEETFQLSRWTPFIKDIMEDAIDNRLDSKEWPYCSRCPAVWNGSGAVSARQKPRTNYLELDRKNGSRLIIFVIGGITYSEMRCAYEVSQAHKSCEVIIGSTHILTPRKLLDDIKMLNKSKDKVSFKDE
Work on B1 yielded a binding as percent of that observed for VAMP2 [1] of under 14% and a binding as percent of that observed for VAMP2 [2] of under 14%.
